For the assay, the target named is T1, His-DUB3 (UniProt Q6R6M4 1-530).
T1 construct: deubiquitinase DUB3 (USP17L2) cloned into pET30a; also called USP17L2; source: E. coli BL21, purified
T1 sequence (looked up): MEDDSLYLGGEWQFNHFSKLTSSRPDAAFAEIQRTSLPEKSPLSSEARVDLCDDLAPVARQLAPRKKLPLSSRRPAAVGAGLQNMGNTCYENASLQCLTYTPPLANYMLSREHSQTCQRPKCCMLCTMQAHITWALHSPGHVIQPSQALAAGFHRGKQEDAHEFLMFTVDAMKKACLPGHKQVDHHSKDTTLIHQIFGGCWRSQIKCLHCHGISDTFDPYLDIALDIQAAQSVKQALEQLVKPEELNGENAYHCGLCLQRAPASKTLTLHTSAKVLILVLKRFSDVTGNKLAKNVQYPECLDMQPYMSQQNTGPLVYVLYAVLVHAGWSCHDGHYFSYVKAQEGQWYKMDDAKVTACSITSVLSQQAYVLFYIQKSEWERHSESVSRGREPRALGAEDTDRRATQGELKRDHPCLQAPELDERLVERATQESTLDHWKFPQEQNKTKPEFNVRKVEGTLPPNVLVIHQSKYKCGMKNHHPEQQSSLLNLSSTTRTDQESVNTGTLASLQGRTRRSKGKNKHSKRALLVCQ
In words: pull-down; GST or GST-fusion protein on Pierce Glutathione agarose, incubated with purified His-tagged protein at 4 °C for 2 h; four washes; immunoblotting. The following applies: both partners purified. In general terms: Immunoblotting shows a protein as a band on a membrane.

The text below walks through data of article PMC11743126, “CK2α-mediated phosphorylation of DUB3 promotes YAP1 stability and oncogenic functions” (Cell Death & Disease, 2025).

B1: GST-CK2α (Casein kinase II alpha, catalytic subunit) (enzyme, UniProt P68400 1-391, looked up)
chain: MSGPVPSRARVYTDVNTHRPREYWDYESHVVEWGNQDDYQLVRKLGRGKYSEVFEAINITNNEKVVVKILKPVKKKKIKREIKILENLRGGPNIITLADIVKDPVSRTPALVFEHVNNTDFKQLYQTLTDYDIRFYMYEILKALDYCHSMGIMHRDVKPHNVMIDHEHRKLRLIDWGLAEFYHPGQEYNVRVASRYFKGPELLVDYQMYDYSLDMWSLGCMLASMIFRKEPFFHGHDNYDQLVRIAKVLGTEDLYDYIDKYNIELDPRFNDILGRHSRKRWERFVHSENQHLVSPEALDFLDKLLRYDHQSRLTAREAMEHPYFYTVVKDQARMGSSSMPGGSTPVSSANMMSGISSVPTPSPLGPLAGSPVIAAANPLGMPVPAAAGAQQ
notes: Casein kinase II alpha (CK2α), catalytic subunit of CK2, cloned into pGEX4T-1; source: E. coli BL21, IPTG induced, pulled down on Pierce Glutathione agarose
Regarding B1, the binding result is “binds”.
